Laboratory results taken from patent EP3244212A1.

Legend:
[1] = molecular target: serum sIgE of the patients of the ELISA inhibition study (Example 3) (human); assay: ELISA inhibition: serum pre-incubated with soluble Ara h 2 (0.1, 1, 10 ug/ml); immobilised competitor Ara h 6
[2] = molecular target: serum sIgE of the patients of the ELISA inhibition study (Example 3) (human); assay: ELISA inhibition: serum pre-incubated with soluble Ara h 2 (0.1, 1, 10 ug/ml); immobilised competitor Ara h 7.0201

% inhibition (median over sera) [1]: 43% | % inhibition (median over sera) [2]: 16%
B1: Ara h 2 isotype 2.0201, recombinant His6 fusion protein (protein)
chain: MSHHHHHHIEGRTMRQQWELQGDRRCQSQLERANLRPCEQHLMQKIQRDEDSYGRDPYSPSQDPYSPSQDPDRRDPYSPSPYDRRGAGSSQHQERCCNELNEFENNQRCMCEALQQIMENQSDRLQGRQQEQQFKRELRNLPQQCGLRAPQRCDLEVESGGRDRY
